Experimental findings from patent US20100080800A1 are described below.

This test deals with Aβ13-21 peptide (peptide 13). Nature of the test: ELISA, biotinylated peptide (Mimotopes protocol). (In general: An ELISA detects its analyte on a solid surface through an enzyme-linked reagent.)

The substance Control IgG (antibody) registered an O.D of 0.171 O.D.
